Results as given in patent US20040209310A1 (published 2004).

Target: T1, myc-tagged Mindin (pcDNA-His/myc-Mindin) (human, UniProt Q9BUD6 27-331)
T1 construct: mature; not shown: His/myc tag of vector pcDNA4-His/myc A
T1 sequence (looked up): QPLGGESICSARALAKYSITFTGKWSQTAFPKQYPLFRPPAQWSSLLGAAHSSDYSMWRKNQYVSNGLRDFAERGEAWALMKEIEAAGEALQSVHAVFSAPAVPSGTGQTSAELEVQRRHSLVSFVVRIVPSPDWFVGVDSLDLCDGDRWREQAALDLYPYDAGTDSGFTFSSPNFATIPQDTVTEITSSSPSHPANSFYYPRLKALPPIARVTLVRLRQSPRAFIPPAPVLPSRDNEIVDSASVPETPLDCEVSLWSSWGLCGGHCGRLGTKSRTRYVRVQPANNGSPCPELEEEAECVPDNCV
Assay: pulldown of myc-tagged Mindin with immobilized GST-CAPPD
Method: Affinity chromatography on immobilized GST- or Ig-fusion proteins. These studies were performed essentially as described (Ichtchenko et al., 1995, Cell 81:435-443; Hata et al., Nature 366:347-351). Brain membrane extract was precleared by incubation (2 h at 4° C.) with glutathione agarose and incubated overnight at 4° C. with immobilized GST-CAPPD on glutathione agarose beads preequilibrated with buffer B. Beads were washed with buffer B and serially eluted with 2 ml of buffer B containing 0.3 M NaCl, 0.5 M NaCl, 1.0 M NaCl, or 1.0 M NaCl, 10 mM EGTA, and 5 mM EDTA (instead of 2 mM CaCl2). Eluted proteins were analyzed by SDS-PAGE and Coomassie blue staining. Bound proteins were identified by liquid chromatography/mass spectroscopy of tryptic fragments. For pulldown assays, the medium from COS cells transfected with pcDNA4-His/myc-F spondin or pcDNA-His/myc-Mindin (collected 48-72 h post transfection) was adjusted to (final concentrations) 10 mM HEPES-NaOH pH 7.4, 1 mM EGTA, 1% Triton X-100, proteinase inhibitors were added, and the supernatant was precleared with immobilized GST orIg-C. The treated medium was then incubated overnight at 4° C. with GST or GST-CAPPD immobilized on glutathione agarose or with various Ig-APP fusion proteins immobilized on protein-A Sepharose. […]

B1: GST-CAPPD fusion protein (pGEX-CAPPD, APP695 residues 286-557) (other, human, UniProt P05067-4 286-557, looked up)
chain: VVRVPTTAASTPDAVDKYLETPGDENEHAHFQKAKERLEAKHRERMSQVMREWEEAERQAKNLPKADKKAVIQHFQEKVESLEQEAANERQQLVETHMARVEAMLNDRRRLALENYITALQAVPPRPRHVFNMLKKYVRAEQKDRQHTLKHFEHVRMVDPKKAAQIRSQVMTHLRVIYERMNQSLSLLYNVPAVAEEIQDEVDELLQKEQNYSDDVLANMISEPRISYGNDALMPSLTETKTTVELLPVNGEFSLDDLQPWHSFGADSVPAN
notes: range 286-557; Expressed in bacteria and immobilized on glutathione agarose/Sepharose; also called CAPPD-GST fusion protein; central APP domain; not shown: glutathione S-transferase of vector pGEX-KG
Q: Does B1 bind?
A: no binding
